From patent publication US9090686B2, “Antibodies for the treatment of HIV” (Pierre Fabre Medicament, priority 2009, dated 2015)

Assays:
[1] = test system: HIV-1 primary isolate 89.6 (dual X4/R5 virus); assay: Neutralization assay, multiple rounds of replication on primary PBMC, isolate 89.6; assay type: cell-based; settings: single agent; 90% decrease of viral titer, multiple rounds, day 7 p24 ELISA
Method: This assay that combines serial dilutions of c515H7 Mab or Maraviroc or combination of both with serial dilutions of virus, analyzes multiple rounds of infection on PBMC (peripheral blood mononuclear cells). Briefly, quadruplicate 25-μl aliquots of serial dilutions (twofold) of c515H7 Mabs or Maraviroc or combination of both were each incubated with 25 μl of serial dilutions of virus in prehydrated 96-well filter plates (1.25-μm pore size, Durapor Dv; Millipore, Molsheim, France). A control titration of the virus (25 μl of RPMI replacing the diluted c515H7 Mabs or Maraviroc) was performed on the same plate as the titrations in the presence of dilutions of the c515H7 Mabs or Maraviroc or combination of both. After 1 h at 37° C., 25 μl of PHA-stimulated PBMC at a concentration of 4×10^6 cells/ml (pool of PHA activated PBMC from five healthy donors) was added to achieve a 75-μl final culture volume of RPMI, 10% fetal calf serum (FCS), and 20 IU of interleukin-2 (IL-2) per ml (R&D System). After 24 h at 37° C., 100 μl of the same culture medium was added. Two washings (200 μl of RPMI each) were performed by filtration on day 4 to remove the c515H7 Mabs and Maraviroc, and 200 μl of fresh culture medium was added. On day 7, the presence of p24 in the culture supernatants was measured by ELISA and compared to that of the negative controls (cultures infected with dilutions of virus and maintained in the presence of 10^−6 M zidovudine [AZT]) to determine positive wells. […]
This assay that combines serial dilutions of hz515H7 Mab or Maraviroc or combination of both with serial dilutions of virus, analyzes multiple rounds of infection on PBMC (peripheral blood mononuclear cells). […] On day 7, the presence of p24 in the culture supernatants was measured by ELISA and compared to that of the negative controls (cultures infected with dilutions of virus and maintained in the presence of 10^−6 M zidovudine [AZT]) to determine positive wells. […]

[2] = target: T1, human CXCR4 (Homo sapiens, UniProt P61073); assay: SDF-1-induced calcium release in CHO-CXCR4 cells; assay type: cell-based; design: expressed in transfected cells; settings: SDF-1 100 nM, recombinant CHO/CXCR4, at about 40 sec.
Description: This functional assay was designed to monitor CXCR4 receptor signaling via stimulation of the phospholipase C pathway, inducing calcium liberation from intracellular stores from the endoplasmic reticulum.
CHO-K1 cells, stably and constitutively expressing human CXCR4 receptor were obtained upon transfection of naïve CHO-K1 cells (ATCC CCL-61) with a mammalian expression vector carrying the whole coding sequence of human CXCR4 receptor (RefSeq NM_003467). Cells were propagated in complete culture medium [DMEM-Ham's F12 supplemented with 5% fetal calf serum (FCS) and 500 μg/ml of geneticin]. Cells were plated in black 96MW plates at a density of 100,000 cells/well in appropriate culture medium. Cells were starved overnight before conducting the experiments. Cells are loaded with the fluorescent calcium dye (Fluo-4 No Wash, Invitrogen US) in loading buffer [HBSS 1×, HEPES 20 mM, Probenicid acid 25 mM] for 30 min. at 37° C. followed by 30 min. at 25° C. Stimulation by SDF-1 was performed by direct injection into each well. For antagonism experiments, 10 μl of Mab solution are added directly into the loading buffer at least 10 min. before SDF-1. Kinetic fluorescence measurements are performed on a multi-mode fluorescence microplate reader Mithras LB940 (Berthold) using the following settings: excitation at 485 nm, emission at 535 nm, excitation energy at 10000 arbitrary units. Fluorescence in each well is recorded during 0.1 second every second and for a time period of 20 sec. prior SDF-1 injection (basal signal). Then 20 μl of SDF-1 are injected and data recording follows for a time period of 2 min. Each experimental condition is performed in duplicate. Values for each well are first corrected by subtracting the basal fluorescence and the fluorescence emitted by a control well without cells. Relative data are expressed as a percentage of the maximal stimulation obtained by SDF-1 (100 nM).

[3] = target: T2, CXCR4 homodimer (Homo sapiens, UniProt P61073); assay: BRET on HEK293 cells expressing CXCR4/Rluc+CXCR4/YFP; assay type: cell-based
T2 construct: expressed in transfected cells; host or cells: HEK293, transient transfection
Description: This functional assay allows to evaluate the conformational changes induced upon SDF-1 and/or 515H7 Mab binding to CXCR4 receptor at the level of CXCR4 homodimer.
(§1) Expression vectors for the investigated interaction partners were constructed as fusion proteins with the corresponding dye (Renilla reniformis luciferase, Rluc and Yellow fluorescent protein, YFP) by applying conventional molecular biology techniques. Two days prior performing BRET experiments, HEK293 cells were transiently transfected with expression vectors coding for the corresponding BRET partners: [CXCR4/Rluc+CXCR4/YFP] to study CXCR4 homodimerization. The day after, cells were distributed in poly-lysine pre-coated white 96 MW plates in complete culture medium [DMEM supplemented with 10% FBS]. Cells were first cultivated at 37° C. with CO2 5% in order to allow cell attachment to the plate. Cells were then starved with 200 μl DMEM/well overnight Immediately prior to the BRET experiment, DMEM was removed and cells were quickly washed with PBS. Cells were then incubated in PBS in the presence or absence of antibody, 10 min at 37° C. prior to the addition of coelenterazine H 5 μM with or without SDF-1 300 nM in a final volume of 50 μl. After incubation for further 10 minutes at 37° C., light-emission acquisition at 485 nm and 530 nm was initiated using the Mithras LB940 multilabel reader (Berthold) (1 s/wavelength/well repeated 15 times at room temperature).
(§2) Calculation of BRET ratio was performed as previously described (Angers et al., 2000): [(emission530 nm)−(emission485 nm)×Cf]/(emission485 nm), where Cf=(emission530 nm)/(emission485 nm) for cells expressing the Rluc fusion protein alone under the same experimental conditions. […] For sake of readability, results are expressed in mi11iBRET units (mBU); mBU corresponds to the BRET ratio multiplied by 1000.
This functional assay allows to evaluate the conformational changes induced upon SDF-1 and/or c515H7 Mab binding to CXCR4 receptor at the level of CXCR4 homodimer.
as §1, with “Cells were then incubated in PBS in the presence or absence of antibody, 10 min at 37° C. prior to the addition of coelenterazine H 5 μM with or without SDF-1 300 nM in a final volume of 50 μl.” left out
as §2, with “milliBRET” for “mi11iBRET”, “1000. […]” for “1000.”

[4] = target: T1, human CXCR4; assay: Cross blocking of biotinylated murine 515H7 on CXCR4 transfected NIH3T3 cells, flow cytometry; assay type: binding; design: expressed in transfected cells; host or cells: NIH3T3 (mouse fibroblasts)
Method: FIG. 19: Cross blocking of the biotinylated murine antibody 515H7 by the chimeric 515H7 and different variants of the humanized 515H7. The activity of the humanized variants of 515H7 (hz515H7) to cross block the parental murine antibody 515H7 was evaluated by flow cytometry using CXCR4 transfected NIH3T3 cells. The activity of the humanized variants was compared to the chimeric 515H7.
Binding of humanized variants of 515H7 was determined on a NIH3T3 cell line stably transfected with human CXCR4. The binding activity was evaluated by a competition assay with the biotinylated mouse antibody. In a second attempt, humanized antibodies were evaluated for their ability to inhibit binding of biotinylated SDF-1 to RAMOS cells. RAMOS cells were chosen because of their high expression of CXCR4 and low expression of CXCR7 and SDF-1.
In a first series of experiments, the anti-CXCR4 binding activities of the three first humanized variants were analysed. The VH variant 1 (VH1) was combined with the murine VL and these constructs were evaluated in their capacity to inhibit the binding of a biotinylated murine 515H7 parental antibody. The amino acid sequence of the variable domain of VH1 comprises the SEQ ID No. 90 whereas the nucleotide sequence comprises the SEQ ID No. 91. […]

T1 sequence (P61073 whole entry): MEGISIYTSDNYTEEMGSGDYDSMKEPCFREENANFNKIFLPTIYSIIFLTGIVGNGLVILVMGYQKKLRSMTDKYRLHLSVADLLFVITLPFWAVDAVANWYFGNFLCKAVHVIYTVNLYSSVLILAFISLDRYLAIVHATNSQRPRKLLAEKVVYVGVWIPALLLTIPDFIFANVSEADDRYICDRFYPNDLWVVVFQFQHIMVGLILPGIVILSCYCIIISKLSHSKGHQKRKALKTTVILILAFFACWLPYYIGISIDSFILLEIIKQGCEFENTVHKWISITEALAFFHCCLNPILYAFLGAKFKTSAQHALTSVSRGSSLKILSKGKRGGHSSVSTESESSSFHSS
T2 sequence (P61073 whole entry): as above
T2 sequence (P61073 whole entry): as above

Maraviroc [reference compound]
IC90 [1]: > 50 µg/mL

SDF-1: Stromal-cell-Derived Factor-1, the natural ligand of CXCR4 [reference compound]
maximal intensity of calcium signal [2]: > 140 % over basal fluorescence | increase of BRET signal ([3]; SDF-1 300 nM): about 20%

B1: hz515H7 VH1 VL2: humanized VH variant 1 (no back mutations) combined with variant 2 of VL (antibody, V domains shown)
VH: EVQLVESGGGLVQPGRSLRLSCTASGFTFTDNYMSWVRQAPGKGLEWVGFIRNKANGYTTEYAASVKGRFTISRDDSKSIAYLQMNSLKTEDTAVYYCARDVGSNYFDYWGQGTLVTVSS
VL: DIVMTQSPSSLAVSLGERATMSCKSSQSLFNSRTRKNYLAWYQQKPGQSPKLLIYWASARDSGVPARFTGSGSETYFTLTISRVQAEDLAVYYCMQSFNLRTFGQGTKVEIK
cross blocking of biotinylated murine 515H7, compared to chimeric 515H7 [4]: No reduction in the activity

B2: hz515H7 VH1 D76N VL2: humanized 515H7 Mab; variable domains VH1 D76N (SEQ ID No. 64) and VL2 (SEQ ID No. 65) (antibody, listed as Mus musculus, V domains shown)
VH: EVQLVESGGGLVQPGRSLRLSCTASGFTFTDNYMSWVRQAPGKGLEWVGFIRNKANGYTTEYAASVKGRFTISRDNSKSIAYLQMNSLKTEDTAVYYCARDVGSNYFDYWGQGTLVTVSS
VL: DIVMTQSPSSLAVSLGERATMSCKSSQSLFNSRTRKNYLAWYQQKPGQSPKLLIYWASARDSGVPARFTGSGSETYFTLTISRVQAEDLAVYYCMQSFNLRTFGQGTKVEIK
inhibition of SDF-1-induced BRET increase ([3]; SDF-1 100 nM): about 88%
